Source: US20200239555A1 (STATEN BIOTECHNOLOGY B V, published 2020)

Assays:
[1] = molecular target: T1, biotinylated native human ApoC3 (human, UniProt P02656 21-99, biotinylated (site not stated)); assay: SPR, IgG1 over biotinylated ApoC3 on SA chip
T1 construct: also called biotinylated human ApoC3
Method: (§1) Biotinylated native human ApoC3 was captured on a streptavidin coated SPR chip (GE Healthcare, cat. nr. BR100032) at pH 7.4, in accordance with the method provided by Biacore, by injection of 20 μl 10 μg/ml biotinylated native human ApoC3 reaching the surface density of approximately 500 RU. 60 μL of test antibody in 1-50 nM range diluted in HBS-EP buffer (GE, cat # BR-1008-26; 0.010 M HEPES, 0.150M NaCl, 3 mM EDTA, 0.05% (v/v) surfactant P20, pH 7.4) was injected and passed through the flow cells at a flow rate of 30 μl/min, followed by an off-rate wash at pH7.4 for 5 min. After the dissociation, the flow cell surfaces were regenerated by injecting 10 μl of 10 mM NaOH/1 M NaCl and 10 μl of 10 mM glycine at pH1.5. The assay was repeated at pH5.5 using the same general protocol, where the running and sample dilution buffer was replaced by a HBS-EP buffer supplemented with citrate buffer to 10 mM final concentration and pH adjusted to 5.5.
(§2) The resulting sensorgrams were analyzed using the BIAevaluation 4.1 software using Langmuir 1:1 binding model to derive binding kinetics. Data was zero adjusted and the reference cell sensorgrams were subtracted. Sensorgrams were double referenced to no-analyte blank assay. Fitted parameters were considered not applicable if off-rate values were below the equipment's detection limit of kd: 1×10⁻⁶ 1/s.

[2] = molecular target: T1, biotinylated native human ApoC3; assay: SPR, IgG1 over biotinylated ApoC3 on SA chip, pH 7.4
Method: as §1, §2

[3] = molecular target: T2, native human ApoC3 (human, UniProt P02656 21-99); assay: SPR, ApoC3 over captured IgG1, pH 7.4
T2 construct: also called nhuApoC3; native huApoC3
Method: (§3) An inverted SPR assay was designed in which a test antibody was captured on an SPR chip, human ApoC3 protein was injected, and binding of ApoC3 to the antibody was measured. […] The immobilization was performed in accordance with the method provided by Biacore/GE using the NHS/EDC kit (Biacore AB, Cat.nr. BR-1000-50): after activation of the chip, a solution of 30 μg/ml of anti-human Fcγ antibody in 10 mM acetate buffer with pH of 5.0 was prepared and injected until the surface density reached approximately 10000 RU. The analytical cycle comprised the following steps:
(§4) The resulting sensorgrams were analyzed using the BIAevaluation 4.1 software using Langmuir 1:1 binding model to derive binding kinetics. Data was zero adjusted, the reference cell sensorgrams were subtracted and the no analyte blank assay was used for double referencing the sensorgrams corresponding to the analyte injections. The dissociation and association phase sensorgrams were fitted separately for the 4 different concentration curves. Sensorgrams were excluded from the fitting if maximum RU values reached were below the detection limit of the equipment (<5 RU), Biacore 3000 (Biacore AB).

[4] = molecular target: T1, biotinylated native human ApoC3; assay: SPR, IgG1 over biotinylated ApoC3 on SA chip, pH 5.5
Method: as §1, §2

[5] = molecular target: T2, native human ApoC3; assay: SPR, ApoC3 over captured IgG1, pH 5.5
Method: as §3, §4

[6] = molecular target: T2, native human ApoC3; assay: SPR, ApoC3 over captured IgG1
Method: as §3, §4

T2 sequence (P02656 21-99): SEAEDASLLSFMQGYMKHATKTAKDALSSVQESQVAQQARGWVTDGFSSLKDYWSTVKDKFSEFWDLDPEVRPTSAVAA
T1 sequence (P02656 21-99): as above

Row | Binder | KD pH5.5/KD pH7.4 [1] | Ka [2] [M⁻¹] | Kd [2] [nM] | koff [2] [s⁻¹] | kon [2] [M⁻¹ s⁻¹] | Ka [3] [M⁻¹] | koff [3] [s⁻¹] | kon [3] [M⁻¹ s⁻¹] | Ka [4] [M⁻¹] | Kd [4] [nM] | koff [4] [s⁻¹] | kon [4] [M⁻¹ s⁻¹] | Ka [5] [M⁻¹] | koff [5] [s⁻¹] | kon [5] [M⁻¹ s⁻¹] | KD (nM) pH5.5/pH7.4 [6] | Kd [3] [nM] | Kd [5] [nM]
1 | mAb5 (antibody, IgG1, V domains shown, Produced as full length IgG1 (kappa) in ExpiCHO-S cells; also called humanized anti-ApoC3 antibody mAb5) VH: QLVESGGGLVQPGGSLRLSCAASGFTFGTYSMRWVRQAPGKGLEWVSSIHTEGGGTAYRDSVKGRFTISRDNAKNTLYLQMNSLRAEDTAVYYCVIAGYSDWGQGTLVTVSS VL: DIVMTQSPLSLPVTPGESASISCKTSQGLVHSDGKTYFYWFLQKPGQSPQQLIYQVSNRASGVPDRFTGSGSGTDFTLKISRVKAEDAGVYYCAHGTYYPHTFGQGTRLEIK | 2.33 | 6.76e+09 | 0.15 | 3.51e-05 | 237000 | 5.51e+06 | 0.00637 | 35100 | 2.9e+09 | 0.35 | 0.000145 | 419000 | 2.45e+06 | 0.0376 | 92000 | 2.25 | – | –
2 | mAb3 (antibody, IgG1, V domains shown, Produced as full length IgG1 (kappa) in ExpiCHO-S cells; also called humanized anti-ApoC3 antibody mAb3) VH: QLVESGGGLVQPGGSLRLSCAASGFTFGTYSMRWVRQAPGKGLEWVSSIHTEGGGTAYRDSVKGRFTISRDNAKNTLYLQMNSLRAEDTAIYYCVIAGYSDWGQGTLVTVSS VL: DIVMTQSPLSLPVTPGESASISCKTSQGLVHSDGKTYFYWFLQKPGQSPQQLIYQVSNRASGVPDRFTGSGSGTDFTLKISRVKAEDAGVYYCAHGTYYPHTFGQGTRLEIK | 3.19 | 9.11e+09 | – | 2.33e-05 | 212000 | 5.75e+06 | 0.00582 | 33400 | 2.85e+09 | 0.35 | 0.000127 | 363000 | 3.09e+06 | 0.033 | 102000 | 1.86 | – | –
3 | mAb2 (antibody, IgG1, V domains shown, Produced as full length IgG1 (kappa) in ExpiCHO-S cells; also called humanized anti-ApoC3 antibody mAb2) VH: QLVESGGGLVQPGGSLRLSCAASGFTFGTYSMRWVRQVPGKGLEWVSSIHTEGGGTAYRDSVKGRFTISRDNAKNTLYLQMNSLRAEDTAIYYCVIAGYSDWGQGTLVTVSS VL: DIVMTQSPLSLPVTPGESASISCKTSQGLVHSDGKTYFYWFLQKPGQSPQQLIYQVSNRASGVPDRFSGSGSGTDFTLKISRVKAEDAGVYYCAHGTYYPHTFGQGTRLEIK | 5.13 | 1.81e+10 | 0.06 | 1.35e-05 | 245000 | 9.69e+06 | 0.0046 | 44500 | 3.54e+09 | 0.28 | 0.000123 | 435000 | 3.44e+06 | 0.0281 | 96600 | 2.82 | – | –
4 | mAb4 (antibody, IgG1, V domains shown, Produced as full length IgG1 (kappa) in ExpiCHO-S cells; also called humanized anti-ApoC3 antibody mAb4) VH: QLVESGGGLVQPGGSLRLSCAASGFTFGTYSMRWVRQAPGKGLEWVSSIHTEGGGTAYRDSVKGRFTISRDNAKNTLYLQMNSLRAEDTAIYYCVIAGYSDWGQGTLVTVSS VL: DIVMTQSPLSLPVTPGESASISCKTSQGLVHSDGKTYFYWFLQKPGQSPQQLIYQVSNRASGVPDRFSGSGSGTDFTLKISRVKAEDAGVYYCAHGTYYPHTFGQGTRLEIK | – | 2.15e+11 | – | 1.13e-06 | 243000 | 8.06e+06 | 0.00565 | 45500 | 2.67e+09 | 0.37 | 0.000156 | 416000 | 2.32e+06 | 0.0359 | 83100 | 3.48 | – | –
5 | mAb1 (antibody, IgG1, V domains shown, Produced as full length IgG1 (kappa) in ExpiCHO-S cells; also called humanized anti-ApoC3 antibody mAb1) VH: QLVESGGGLVQPGGSLRLSCAASGFTFGTYSMRWVRQVPGKGLEWVSSIHTEGGGTAYRDSVKGRFTISRDNAKNTLYLQMNSLRAEDTAIYYCVIAGYSDWGQGTLVTVSS VL: DIVMTQSPLSLPVTPGESASISCKTSQGLVHSDGKTYFYWFLQKPGQSPQQLIYQVSNRASGVPDRFTGSGSGTDFTLKISRVKAEDAGVYYCAHGTYYPHTFGQGTRLEIK | 5.22 | 2.2e+10 | 0.05 | 1.18e-05 | 261000 | 1.35e+07 | 0.00426 | 57600 | 4.23e+09 | 0.24 | 0.000104 | 440000 | 3.95e+06 | 0.0257 | 101000 | 3.42 | 74 | –

The remaining lines, values ahead:

Row | KD pH5.5/KD pH7.4 [1] | Ka [2] [M⁻¹] | Kd [2] [nM] | koff [2] [s⁻¹] | kon [2] [M⁻¹ s⁻¹] | Ka [3] [M⁻¹] | koff [3] [s⁻¹] | kon [3] [M⁻¹ s⁻¹] | Ka [4] [M⁻¹] | Kd [4] [nM] | koff [4] [s⁻¹] | kon [4] [M⁻¹ s⁻¹] | Ka [5] [M⁻¹] | koff [5] [s⁻¹] | kon [5] [M⁻¹ s⁻¹] | KD (nM) pH5.5/pH7.4 [6] | Kd [3] [nM] | Kd [5] [nM] | Binder
6 | 6.48 | 7.49e+08 | – | 0.000838 | 628000 | 1.97e+06 | 0.0539 | 106000 | 1.16e+08 | – | 0.0155 | 1.79e+06 | – | – | – | – | – | – | mAb18 (antibody, IgG1, V domains shown, Produced as full length IgG1 (kappa) in ExpiCHO-S cells; also called humanized anti-ApoC3 antibody mAb18) VH: QLVESGGGLVQPGGSLRLSCAASGFTFSTYSMRWVRQAPGKGLEWVSSIHTEAGGTAYRDSVKGRFTISRDNAKNTLYLQMNNLRAEDTAVYYCVIAGYSDWGQGTLVTVSS VL: DIVMTQSPLSLPVTPGEPASISCKTSQGLVHSGGKTYFYWFLQKPGQSPQQLIYQVSNRASGVPDRFTGSGSGTDFTLKISRVEAEDAGVYYCAHGTYYPHTFGQGTRLEIK
7 | 10.8 | 1.46e+09 | 0.69 | 0.000375 | 546000 | 1.68e+06 | 0.0466 | 78100 | 1.34e+08 | – | 0.0121 | 1.63e+06 | – | – | – | – | – | – | mAb16 (antibody, IgG1, V domains shown, Produced as full length IgG1 (kappa) in ExpiCHO-S cells; also called humanized anti-ApoC3 antibody mAb16) VH: QLVESGGGLVQPGGSLRLSCAASGFTFGTYSMRWVRQAPGKGLEWVSSIHTEAGGTAYRDSVKGRFTISRDNAKNTLYLQMNNLKAEDTAIYYCVIAGYSDWGQGTQVTVSS VL: DIVMTQSPLSLPVTPGESASISCKTSQGLVHSGGKTYFYWFLQKPGQSPQQLIYQVSNRASGVPDRFTGSGSGTDFTLKISRVEAEDAGVYYCAHGTYYPHTFGSGTRLEIK
8 | 16.1 | 1.71e+09 | 0.59 | 0.000487 | 831000 | 747000 | 0.0737 | 55100 | 1.06e+08 | – | 0.0214 | 2.27e+06 | – | – | – | – | – | – | mAb20 (antibody, IgG1, V domains shown, Produced as full length IgG1 (kappa) in ExpiCHO-S cells; also called humanized anti-ApoC3 antibody mAb20) VH: QLVESGGGLVQPGGSLRLSCAASGFTFSTYSMRWVRQAPGKGLEWVSSIHTDAGGTAYRDSVKGRFTISRDNAKNTLYLQMNNLRPEDTAVYYCVIAGYSDWGQGTLVTVSS VL: DIVMTQSPGSLSVTPGEPASISCKTSQGLVHSGGKTYFYWFLQKPGQSPQQLIYQVSNRASGVPDRFTGSGSGTDFTLKISGVEAEDAGVYYCAHGTYYPHTFGQGTRLEIK
9 | – | 1.86e+11 | – | 2.77e-06 | 516000 | 2.88e+07 | 0.00378 | 109000 | 2.83e+09 | 0.35 | 0.000249 | 705000 | 1.16e+07 | 0.0116 | 134000 | 2.48 | 35 | 86 | mAb15 (antibody, IgG1, V domains shown, Produced as full length IgG1 (kappa) in ExpiCHO-S cells; also called humanized anti-ApoC3 antibody mAb15) VH: QLVESGGGLVQPGGSLRLSCAASGFTFGTYSMRWVRQAPGKGLEWVSSIHTEAGGTAYRDSVKGRFTISRDNAKNTLYLQMNNLKAEDTAIYYCVIAGYSDWGQGTQVTVSS VL: DIVMTQSPLSLPVTPGESASISCKTSQGLVHSGGKTYFYWFLQKPGQSPQQLIYQVSNRASGVPDRFTGSGSGTDFTLKISRVEAEDAGVYYCAQGTYYPHTFGSGTRLEIK
